Assay results published in publication PMC9186069 (2022).

Biological target: T1, active C1r (human, UniProt P00736)
T1 chain 1: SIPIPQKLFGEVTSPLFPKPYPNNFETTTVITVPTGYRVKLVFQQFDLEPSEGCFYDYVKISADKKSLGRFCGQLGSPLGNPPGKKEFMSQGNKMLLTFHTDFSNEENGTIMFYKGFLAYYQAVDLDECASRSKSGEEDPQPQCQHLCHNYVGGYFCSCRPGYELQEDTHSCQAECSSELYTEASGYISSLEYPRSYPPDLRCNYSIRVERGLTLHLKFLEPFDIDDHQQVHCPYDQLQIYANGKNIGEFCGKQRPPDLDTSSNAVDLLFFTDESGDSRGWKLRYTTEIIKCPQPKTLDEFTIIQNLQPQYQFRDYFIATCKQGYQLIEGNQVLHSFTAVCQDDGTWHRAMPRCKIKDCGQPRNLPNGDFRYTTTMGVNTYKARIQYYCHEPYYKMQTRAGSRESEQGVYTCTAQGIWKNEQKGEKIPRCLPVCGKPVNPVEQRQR
T1 chain 2: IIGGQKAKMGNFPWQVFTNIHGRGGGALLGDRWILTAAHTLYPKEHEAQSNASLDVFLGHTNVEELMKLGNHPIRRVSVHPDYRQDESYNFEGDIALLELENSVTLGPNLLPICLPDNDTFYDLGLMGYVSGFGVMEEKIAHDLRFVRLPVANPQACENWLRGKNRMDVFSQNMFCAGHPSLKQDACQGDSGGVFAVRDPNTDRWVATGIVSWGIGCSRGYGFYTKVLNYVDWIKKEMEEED
Experiment: SPR

B1: FbpB-Δ5C (domain or fragment)
chain: GSTGSETRLDNQYKFNLNKTTNSVEQALKIAQQIKDDLDTIEFHRIKLSNHYGIRAEEHEKQTAKEELSKFSKDKLEADLKKLLCEIEKSLNAATILTTHNEYHYGGNLQSDLSAKTTLDTLKTEVSSLISKIQNSNNKDHQAYPTSYYNDYQSYQALRNPYSKLTLVK
modifications: activated two-chain form, cleaved between 463 and 464 (cleavage limits from UniProt chain features), heavy and light chains disulfide-linked; plasma-purified glycoprotein; native C1r forms a Ca-dependent-complex homodimer, but the paper does not state stoichiometry
  Kd: 2.1 nM
